{
  "source": "paper PMC10858965",
  "assay_in_all_cases": "filter binding",
  "conditions_in_all_cases": "1 mM MgCl2 in FB buffer; Filter binding: 3 parts FB buffer (50 mM Tris pH 8.0, 1 mM MgCl2) + 1 part SEC buffer (20 mM HEPES pH 7.5, 150 mM NaCl, 1 mM DTT, 10% glycerol), 5 min, room …",
  "key": {"[1]": {"tested_on": "Lig4 delta-DBD;XRCC4 (Xenopus laevis;Xenopus laevis?)"}, "[2]": {"tested_on": "Lig4 mDBD1+2;XRCC4 (Xenopus laevis;Xenopus laevis?)"}, "[3]": {"tested_on": "Lig4 mDBD1;XRCC4 (Xenopus laevis;Xenopus laevis?)"}, "[4]": {"tested_on": "Lig4 mDBD2;XRCC4 (Xenopus laevis;Xenopus laevis?)"}},
  "data": [
    {"substance": "~1 kb circular DNA", "values": [
      {"measurement": "binding signal (fold weaker than WT)", "setting": "[1]", "value": 30},
      {"measurement": "binding signal (fold weaker than WT)", "setting": "[2]", "value": 30},
      {"measurement": "binding signal (fold weaker than WT)", "setting": "[3]", "value": 10},
      {"measurement": "binding signal (fold weaker than WT)", "setting": "[4]", "value": 10}
    ]}
  ]
}
